Numbering of substitutions follows the chain as printed.
Molecular target: T1, C3b (UniProt P01024 23-667; P01024 749-1663)
T1 construct: Amine-coupled to a CM5 Biacore chip in the SPR assays; in solution in the cofactor assay; also called complement C3b
Assay: SPR (Biacore), C3b amine-coupled to a CM5 chip, steady-state fit over two flow cells (1540 and 3030 RU of C3b)
Method: FIG. 3G—(i) and (ii)—Use of SPR to measure affinity of (i)rFH and (ii) plasma-purified FH for C3b coupled to aCM5 sensor chip (Biacore). Duplicate sensorgrams are shown for a concentration series (5.4 μM, 1.0 μM, 0.5 μM, 0.1 μM) flowed over 1540 response units of immobilised C3b. (iii) and (iv)—Plots of response units versus (iii)rFH or (iv) plasma-purified FH concentrations for two different flow cells with either 1540 RUs (lower curve in each plot) or 3030 RUs (upper curve in each plot) of C3b.

T1 sequence (P01024 23-667 limits assumed, chain 1 of 2): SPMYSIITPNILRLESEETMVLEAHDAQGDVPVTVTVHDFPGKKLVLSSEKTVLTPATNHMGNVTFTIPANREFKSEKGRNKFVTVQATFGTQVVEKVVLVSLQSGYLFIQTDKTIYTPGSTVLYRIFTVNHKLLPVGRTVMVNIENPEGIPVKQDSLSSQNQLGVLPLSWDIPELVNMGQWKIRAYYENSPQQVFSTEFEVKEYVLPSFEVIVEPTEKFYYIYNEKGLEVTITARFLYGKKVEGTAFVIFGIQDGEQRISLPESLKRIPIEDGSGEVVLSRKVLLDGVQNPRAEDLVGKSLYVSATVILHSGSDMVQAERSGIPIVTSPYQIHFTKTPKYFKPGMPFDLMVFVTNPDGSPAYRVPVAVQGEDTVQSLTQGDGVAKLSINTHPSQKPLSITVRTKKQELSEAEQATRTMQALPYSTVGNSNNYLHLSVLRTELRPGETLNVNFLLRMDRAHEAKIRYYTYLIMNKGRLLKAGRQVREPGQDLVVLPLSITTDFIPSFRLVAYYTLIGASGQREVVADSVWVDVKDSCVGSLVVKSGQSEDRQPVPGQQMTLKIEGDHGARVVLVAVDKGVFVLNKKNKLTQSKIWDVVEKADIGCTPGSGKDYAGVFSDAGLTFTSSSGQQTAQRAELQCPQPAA
T1 sequence (P01024 749-1663 limits assumed, chain 2 of 2): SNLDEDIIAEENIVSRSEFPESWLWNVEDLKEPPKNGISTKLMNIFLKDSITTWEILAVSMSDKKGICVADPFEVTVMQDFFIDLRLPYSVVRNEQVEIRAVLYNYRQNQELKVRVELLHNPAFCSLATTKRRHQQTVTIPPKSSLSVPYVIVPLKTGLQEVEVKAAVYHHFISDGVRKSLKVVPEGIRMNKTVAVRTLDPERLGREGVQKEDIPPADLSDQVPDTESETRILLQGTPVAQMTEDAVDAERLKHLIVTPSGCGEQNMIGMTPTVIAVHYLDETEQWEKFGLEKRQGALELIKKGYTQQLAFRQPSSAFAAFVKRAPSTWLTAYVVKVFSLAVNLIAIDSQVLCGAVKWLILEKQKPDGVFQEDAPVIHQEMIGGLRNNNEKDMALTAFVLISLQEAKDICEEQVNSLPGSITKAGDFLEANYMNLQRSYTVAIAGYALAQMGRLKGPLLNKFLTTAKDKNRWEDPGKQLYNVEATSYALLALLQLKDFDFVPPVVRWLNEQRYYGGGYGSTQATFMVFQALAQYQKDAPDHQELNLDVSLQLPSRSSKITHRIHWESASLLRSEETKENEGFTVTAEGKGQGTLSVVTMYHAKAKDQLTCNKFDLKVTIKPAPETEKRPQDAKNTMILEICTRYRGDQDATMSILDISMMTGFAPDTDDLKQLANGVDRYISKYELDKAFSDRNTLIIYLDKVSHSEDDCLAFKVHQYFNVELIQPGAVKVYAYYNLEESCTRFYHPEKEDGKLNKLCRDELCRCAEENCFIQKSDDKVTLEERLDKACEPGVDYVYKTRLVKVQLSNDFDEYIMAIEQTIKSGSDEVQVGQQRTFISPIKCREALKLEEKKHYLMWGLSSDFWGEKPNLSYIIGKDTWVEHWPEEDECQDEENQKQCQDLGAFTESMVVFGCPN

B1: recombinant human complement factor H (rFH) expressed from codon-optimised DNA in Pichia pastoris (other, UniProt P08603 19-1231, looked up)
chain: EDCNELPPRRNTEILTGSWSDQTYPEGTQAIYKCRPGYRSLGNIIMVCRKGEWVALNPLRKCQKRPCGHPGDTPFGTFTLTGGNVFEYGVKAVYTCNEGYQLLGEINYRECDTDGWTNDIPICEVVKCLPVTAPENGKIVSSAMEPDREYHFGQAVRFVCNSGYKIEGDEEMHCSDDGFWSKEKPKCVEISCKSPDVINGSPISQKIIYKENERFQYKCNMGYEYSERGDAVCTESGWRPLPSCEEKSCDNPYIPNGDYSPLRIKHRTGDEITYQCRNGFYPATRGNTAKCTSTGWIPAPRCTLKPCDYPDIKHGGLYHENMRRPYFPVAVGKYYSYYCDEHFETPSGSYWDHIHCTQDGWSPAVPCLRKCYFPYLENGYNQNYGRKFVQGKSIDVACHPGYALPKAQTTVTCMENGWSPTPRCIRVKTCSKSSIDIENGFISESQYTYALKEKAKYQCKLGYVTADGETSGSITCGKDGWSAQPTCIKSCDIPVFMNARTKNDFTWFKLNDTLDYECHDGYESNTGSTTGSIVCGYNGWSDLPICYERECELPKIDVHLVPDRKKDQYKVGEVLKFSCKPGFTIVGPNSVQCYHFGLSPDLPICKEQVQSCGPPPELLNGNVKEKTKEEYGHSEVVEYYCNPRFLMKGPNKIQCVDGEWTTLPVCIVEESTCGDIPELEHGWAQLSSPPYYYGDSVEFNCSESFTMIGHRSITCIHGVWTQLPQCVAIDKLKKCKSSNLIILEEHLKNKKEFDHNSNIRYRCRGKEGWIHTVCINGRWDPEVNCSMAQIQLCPPPPQIPNSHNMTTTLNYRDGEKVSVLCQENYLIQEGEEITCKDGRWQSIPLCVEKIPCSQPPQIEHGTINSSRSSQESYAHGTKLSYTCEGGFRISEENETTCYMGKWSSPPQCEGLPCKSPPEISHGVVAHMSDSYQYGEEVTYKCFEGFGIDGPAIAKCLGEKWSHPPSCIKTDCLSLPSFENAIPMGEKKDVYKAGEQVTYTCATYYKMDGASNVTCINSRWTGRPTCRDTSCVNPPTVQNAYIVSRQMSKYPSGERVRYQCRSPYEMFGDEEVMCLNGNWTEPPQCKDSTGKCGPPPPIDNGDITSFPLSVYAPASSVEYQCQNLYQLEGNKRITCRNGQWSEPPKCLHPCVISREIMENYNIALRWTAKQKLYSRTGESVEFVCKRGYRLSSRSHTLRTTCWDGKLEYPTCAKR
modifications: N-glycans removed with Endo Hf after expression
notes: mature; also called rhFH; recombinant FH
- Kd: 1.4 µM

B2: plasma-purified human factor H (other, UniProt P08603 19-1231, looked up)
chain: B1 chain with I44V
notes: mature; Bought, plasma-derived; also called FH; plasma FH
- Kd: 2.9 µM

From patent publication US20150139975A1 (published 2015)
